Paper PMC9499402, “Crystal Structure of an Archaeal Tyrosyl-tRNA Synthetase Bound to Photocaged L-Tyrosine and Its Potential Application to Time-Resolved X-ray Crystallography” (International Journal of Molecular Sciences, 2022)

Target: the molecule itself
Assay: crystal structure; oNBTyrRS (10 mg/mL) co-crystallised with oNBTyr (1.4 mg/mL), sitting-drop vapor diffusion at 20 °C; reservoir 20% PEG300, 3% PEG8000, 10% glycerol, 100 mM Tris-HCl pH 8.0; dimer in the asymmetric unit; 2.79 Å

B1: oNBTyrRS, O-(2-nitrobenzyl)-L-tyrosine-specific variant of Methanocaldococcus jannaschii tyrosyl-tRNA synthetase (Y32G, L65G, F108E, D158S, L162E, D286R) (enzyme, UniProt Q57834 1-306, looked up)
chain: MDEFEMIKRNTSEIISEEELREVLKKDEKSAGIGFEPSGKIHLGHYLQIKKMIDLQNAGFDIIIGLADLHAYLNQKGELDEIRKIGDYNKKVFEAMGLKAKYVYGSEEQLDKDYTLNVYRLALKTTLKRARRSMELIAREDENPKVAEVIYPIMQVNSIHYEGVDVAVGGMEQRKIHMLARELLPKKVVCIHNPVLTGLDGEGKMSSSKGNFIAVDDSPEEIRAKIKKAYCPAGVVEGNPIMEIAKYFLEYPLTIKRPEKFGGDLTVNSYEELESLFKNKELHPMRLKNAVAEELIKILEPIRKRL
notes: Methanocaldococcus jannaschii tyrosyl-tRNA synthetase (MjTyrRS), UniProt Q57834, with six substitutions; all 306 amino acid residues were modelled in the crystal structure; Residues of the TEV site may remain after cleavage; also called oNBTyr-tRNA synthetase; M. jannaschii oNBTyrRS; source: E. coli Rosetta2 (DE3), purified (HisTrap, TEV cleavage, HisTrap flow-through, desalting, HiTrap Q); not …
stoichiometry N: 2
